Measurements: the DeepSol protein solubility set

Experiment: soluble on expression in E. coli; label from the status in PepcDB or PDB records

Soluble on expression in E. coli, soluble:
ASIYKNKKSHEQLSALKGSFCRNQFPGQSEVEHLTKVTGLSTREVRKWFSDRRYHCRNLKGSR, MSLLITAGVIALGFNFKRFQNEYDWLTLKPEQKLNVPLVNQLPDLPNGCEVTSLAMLLKYYDINVSKLELSSNIKHVSSFVGNNYRGNPHVGFVGYMSIKNAGWCVYNEPLYNVARKYTKRIRNYTGNDFVQVLKLVSKRHPVVIITTLKFDRVNDMQTWSTKQGKVHVTPSSHACVITGYNKKKGIVYVNDPYGVKNKKVSLKKIEASYNQQGKQALYIEEGHHHHHH, MSLNYIEDIKNYIPFNEQEERDKELFLRCLNDFHDILTRDNTIAHLTSSAFAVNKERNKFLMIHHNIYNSWAWTGGHSDNEKDQLKVAIKELKEETGVKNPTPLLDKAFALDVLTVNGHIKRGKYVSSHLHLNLTYLIECSEDETLMLKEDENSGVMWIPFNEISKYCSEPHMIPIYEKLINKLKTQSKEGHHHHHH, PGSSGLPPEKPKNLSCIVNEGKKMRCEWDGGRETHLETNFTLKSEWATHKFADCKAKRDTPTSCTVDYSTVYFVNIEVWVEAENALGKVTSDHINFDPVYKVKPNPPHNLSVINSEELSSILKLTWTNPSIKSVIILKYNIQYRTKDASTWSQIPPEDTASTRSSFTVQDLKPFTEYVFRIRCMKEDGKGYWSDWSEEASGITYEDRPSKEPSFW, YQQDQVVKEDNIEAVGKKLHKYNTQFQEKSREYDRLYEEYTRTSQEIQMKRTAIEAFNETIKIFEEQCQTQERYSKEYIEKFKREGNEKEIQRIMHNYDKLKSRISEIIDSRRRLEEDLKKQAAEYREIDKRMNSIKPDLIQLRKTRDQYLMWLTQKGVRQKKLNEWLGN, MSNEYDEYIANHTDPVKAINWNVIPDEKDLEVWDRLTGNFWLPEKIPVSNDIQSWNKMTPQEQLATMRVFTGLTLLDTIQGTVGAISLLPDAETMHEEAVYTNIAFMESVHAKSYSNIFMTLASTPQINEAFRWSEENENLQRKAKIIMSYYNGDDPLKKKVASTLLESFLFYSGFYLPMYLSSRAKLTNTADIIRLIIRDESVHGYYIGYKYQQGVKKLSEAEQEEYKAYTFDLMYDLYENEIEYTEDIYDDLGWTEDVKRFLRYNANKALNNLGYEGLFPTDETKVSPAILSSLSPNADENHDFFSGSGSSYVIGKAEDTTDDDWDF

Soluble on expression in E. coli, not soluble:
IRDFSYGVKFVLSDSQQKILKYPNEDYNIGTYYKGQKLNNIWGYKTIGIAQSQEEMDAHLAKVDQSALGSKWGAGDIMYADLDGDGKISTGSNKLGDTGDRVILGNSTPRFNYGLTIDASWKGIDFRAFFQGIGKRDYWLQGPYFWGSTGLGQWQAAGFKEHWDFWRPEGDPLGANTNAYYPRVARNGGKNTNVQSRYLQNAAYCRLKNIQIGYTLPKTWTEKAGMSSVRVYVSGDNLLTFSDITGIFDPEAIGSTYDANNGKLYPLQRVISVGLNVNF, MGSDKIHHHHHHMEINGHEIQFKDNAVFLEENKILILADVHVGMEEFIRRNGVLFPLNEKKELLKRLKNLIVEFKPEKLVFLGDFLHHFQKVPYKVYETIRELNSLLKNYEIIVIRGNHDIMLEYILKENTNFKILDYLLENKILMIHGDKKFDIDFNFDLLIMGHEHPVLEINKQRFPSYLEIVQNDFKILVAPAFSNIASGVKINELESNFMSPYLKKVKKEDIFPIIIGEEVLKFPDLSKIEKFL, MIMSKIKLTKNDLKKQKDELKMFKRYLPTLQLKKQQLYMEIVKIENSYKIKNLEQQKLKENISNWISLFSEKFPFESWIQVKTVVKKSLNIAGVAIPIFDSIEYEDIRHDLLFTPYWVDKGIEILKVVIQIDVELKILKKQIDLLLREFRITSQRVNLFEKVMIPTAKANIKKINIYLGDQQTAAVVRGKIAKSSLIKKNRNSLLEHHHHHH, MGSDKIHHHHHHMSTSYEISSLPWLSASHELLLKQVRLGSLSHGHLLDVHTQLGGDVLAQSMAKLILCQALTPVGACGQCKACLLVSAGTHPDLHSVAPDGNQIKVDQIRSLCSSLTSTAQQGGKRVAIIYQSERMNTASANALLKTLEEPGKETFLLLQTDRTAALLATVKSRCQTLSITPPSNAEVNAWLKGQQLLPVVPDGAKPHDVTWCLSVVGGPIQLAQSLQSDKYQTLLNYRKEWAMSLSSGHLCGSLLALKDNQLIDALQVLYLYLRHFVLKSNDINAFTKAQVITLAAKIMEMRHKLTTMAAVNTQALCMDYVLAFRQLTHTHR
